Laboratory results: PMC4831024 (Nature Communications, 2016)

Biological target: T1, Ku heterodimer (Ku70/Ku80), full length, recombinant human (human, UniProt P12956 1-609; P13010 1-732)
T1 construct: Ku70, human; Ku80, human; also called recombinant Ku; full-length Ku heterodimer; source: insect cells, baculovirus expression system, purified (immobilized metal-chelate chromatography, gel filtration)
Assay: pull-down; 50 nM Strep-tagged WRN protein immobilised on Streptavidin Mag Sepharose beads, 50 nM recombinant untagged Ku, 1 h at 4 °C; 20 mM Hepes pH 7.5, 150 mM NaCl, 5% glycerol, 0.5 mM TCEP, 0.05% IGEPAL-CA640; SDS–PAGE, Coomassie/Instant Blue
Details: both partners purified

T1 sequence (P12956 whole entry, chain 1 of 2): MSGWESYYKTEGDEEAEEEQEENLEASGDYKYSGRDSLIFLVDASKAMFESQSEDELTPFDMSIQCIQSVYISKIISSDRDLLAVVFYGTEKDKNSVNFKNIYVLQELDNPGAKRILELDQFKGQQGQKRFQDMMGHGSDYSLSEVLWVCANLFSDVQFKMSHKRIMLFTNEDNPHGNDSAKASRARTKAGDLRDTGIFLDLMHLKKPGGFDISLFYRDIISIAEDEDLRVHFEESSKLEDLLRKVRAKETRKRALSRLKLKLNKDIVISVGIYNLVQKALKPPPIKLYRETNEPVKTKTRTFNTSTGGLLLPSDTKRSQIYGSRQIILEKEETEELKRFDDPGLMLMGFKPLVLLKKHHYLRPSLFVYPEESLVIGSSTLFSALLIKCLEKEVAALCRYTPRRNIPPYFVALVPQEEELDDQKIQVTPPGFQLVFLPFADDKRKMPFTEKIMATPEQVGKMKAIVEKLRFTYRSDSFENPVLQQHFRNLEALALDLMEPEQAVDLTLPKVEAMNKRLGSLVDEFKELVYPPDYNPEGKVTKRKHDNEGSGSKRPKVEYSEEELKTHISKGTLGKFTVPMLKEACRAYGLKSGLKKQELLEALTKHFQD
T1 sequence (P13010 whole entry, chain 2 of 2): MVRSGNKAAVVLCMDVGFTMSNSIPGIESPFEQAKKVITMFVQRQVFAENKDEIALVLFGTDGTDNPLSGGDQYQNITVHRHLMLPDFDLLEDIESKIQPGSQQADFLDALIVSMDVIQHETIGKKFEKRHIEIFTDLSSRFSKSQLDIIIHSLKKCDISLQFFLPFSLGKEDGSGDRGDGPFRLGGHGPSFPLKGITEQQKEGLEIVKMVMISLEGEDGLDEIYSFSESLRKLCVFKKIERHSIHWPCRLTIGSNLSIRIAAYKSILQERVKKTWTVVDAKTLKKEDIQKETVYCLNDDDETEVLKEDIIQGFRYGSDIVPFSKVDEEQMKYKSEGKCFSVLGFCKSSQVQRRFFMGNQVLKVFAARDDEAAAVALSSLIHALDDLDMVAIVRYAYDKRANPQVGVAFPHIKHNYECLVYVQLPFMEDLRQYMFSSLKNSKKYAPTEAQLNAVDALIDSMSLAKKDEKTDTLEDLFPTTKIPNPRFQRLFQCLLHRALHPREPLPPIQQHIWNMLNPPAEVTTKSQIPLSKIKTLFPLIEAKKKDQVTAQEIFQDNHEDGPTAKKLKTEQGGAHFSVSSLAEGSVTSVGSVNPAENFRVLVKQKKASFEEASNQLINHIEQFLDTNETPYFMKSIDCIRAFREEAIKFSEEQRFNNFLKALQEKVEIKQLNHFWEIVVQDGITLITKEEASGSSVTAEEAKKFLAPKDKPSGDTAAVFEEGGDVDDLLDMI

B1: Strep-tagged WRN^W18G (natural protein)
chain: not shown
notes: Werner syndrome protein (WRN), human, full length, W18G; source: insect cells, baculovirus expression system, purified (Strep-Tactin Superflow Plus cartridge, Superose 6 gel filtration)
**Q.** Does B1 bind?
**A.** Result: binds
